From article PMC8226839, “New Perspectives in the Antimicrobial Activity of the Amphibian Temporin B: Peptide Analogs Are Effective Inhibitors of Candida albicans Growth” (Journal of Fungi, 2021)

B1: Trypsin: protease, applied alone as control after neutralization with 1.25% FCS (protein, UniProt P00760 24-246, looked up)
Serine protease 1: IVGGYTCGANTVPYQVSLNSGYHFCGGSLINSQWVVSAAHCYKSGIQVRLGEDNINVVEGNEQFISASKSIVHPSYNSNTLNNDIMLIKLKSAASLNSRVASISLPTSCASAGTQCLISGWGNTKSSGTSYPDVLKCLKAPILSDSSCKSAYPGQITSNMFCAGYLEGGKDSCQGDSGGPVVCSGKLQGIVSWGSGCAQKNKPGVYTKVCNYVSWIKQTIASN
B2: Proteinase K: protease, applied alone as control after thermal inactivation (protein, UniProt P06873 106-384, looked up)
Proteinase K: AAQTNAPWGLARISSTSPGTSTYYYDESAGQGSCVYVIDTGIEASHPEFEGRAQMVKTYYYSSRDGNGHGTHCAGTVGSRTYGVAKKTQLFGVKVLDDNGSGQYSTIIAGMDFVASDKNNRNCPKGVVASLSLGGGYSSSVNSAAARLQSSGVMVAVAAGNNNADARNYSPASEPSVCTVGASDRYDRRSSFSNYGSVLDIFGPGTSILSTWIGGSTRSISGTSMATPHVAGLAAYLMTLGKTTAASACRYIADTANKGDLSNIPFGTVNLLAYNNYQA
modifications: heat-inactivated

Test system: C. albicans
Assay: Broth microdilution, impact of protease inactivation conditions (growth %)
Assay type: cell-based, Candida albicans

Molecule | Growth [%] (0.125 µM protease alone + 1.25 % FCS) | Growth [%] (0.125 µM protease alone + 100 °C, 15 min)
B1 | 136.7 ± 14% | –
B2 | – | 86 ± 4.5%
